This note sets out measurements from patent US20240102068A1, “C-GLYCOSYLTRANSFERASE VARIANTS AND USE THEREOF” (KOREA ADVANCED INSTITUTE OF SCIENCE AND TECHNOLOGY, priority 2021, published 2024).

Substitutions are numbered along the chain they refer to. Numbers in names are those of the source.

Series [1] deals with T1, Gentiana triflora GtCGT (GtUF6CGT1) variant V93Q/Y193F, SEQ ID NO: 61 (Gentiana triflora, UniProt A0A0B6VIJ5, V93Q/Y193F).
T1 sequence (A0A0B6VIJ5 1-477 V93Q/Y193F): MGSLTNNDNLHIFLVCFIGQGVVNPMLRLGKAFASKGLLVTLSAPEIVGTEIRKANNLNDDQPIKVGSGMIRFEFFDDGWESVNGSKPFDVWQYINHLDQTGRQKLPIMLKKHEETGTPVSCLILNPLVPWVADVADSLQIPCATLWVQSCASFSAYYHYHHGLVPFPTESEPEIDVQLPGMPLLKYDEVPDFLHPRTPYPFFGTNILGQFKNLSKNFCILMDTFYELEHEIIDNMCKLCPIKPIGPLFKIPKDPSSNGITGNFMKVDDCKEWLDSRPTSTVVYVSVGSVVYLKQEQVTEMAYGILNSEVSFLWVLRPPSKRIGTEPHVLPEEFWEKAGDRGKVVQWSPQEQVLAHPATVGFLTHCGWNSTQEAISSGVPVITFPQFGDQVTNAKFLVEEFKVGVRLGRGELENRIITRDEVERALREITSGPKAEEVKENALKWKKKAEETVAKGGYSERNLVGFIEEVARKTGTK
In words: enzyme kinetics of purified N-terminal 6xHis GtCGT V93Q/Y193F, FK to dcII, UDP-Glo Glycosyltransferase Assay. The format is biochemical. The procedure:
Each plasmid was constructed by PCR amplification of pCDF-GtCGT and pCDF-GtCGTmut using GtCGT_N_His_IV_F and GtCGT_N_His_IV_R primers, followed by blunt-end ligation through DpnI treatment and T4 PNK and T4 ligase treatment. Each of the two plasmids thus constructed was transformed into the E. coli BL21(DE3) strain, followed by seed culture in a test tube containing 10 mL of LB and then culture at 37° C. until OD600 reached 0.8 in a flask containing 500 mL of LB. After treatment with 1 mM IPTG for enzyme expression, additional culture was carried out at 20° C. for 16 hours, and cells were collected by centrifugation and then resuspended in 30 mL of lysis buffer (50 mM NaH2PO4, 0.3 M NaCl, 10 mM imidazole, pH 7.5). The cells were disrupted by ultrasonication and then centrifuged at 10,000 rpm and 4° C. for 40 minutes to obtain a supernatant containing water-soluble proteins. […]
Here, a UDP-Glo Glycosyltransferase Assay Kit (Promega) was used to determine the extent of reaction. Since this kit enables measurement of free UDP generated as a reaction byproduct by luminescence, 200 μL of an enzyme reaction solution containing 0.1 μM enzyme and various concentrations of FK (50 mM HEPES, 0.1 mM UDP-glucose, 5 mM MgCl2, pH 7.5) was allowed to react at 25° C. for 1 hour, 25 μL thereof was taken out, and the amount of emitted light was measured using the kit.

Substrate in the series “enzyme kinetics of DnrF”: Cc1c(C(=O)O)c(O)cc2c1C(=O)c1c(O)cc(O)cc1C2=O
Put plainly: enzyme kinetics of DnrF. The format is biochemical, Streptomyces peucetius. Particulars: other: means ± SD, n = 3.

Substrate in series [2]: Cc1c(C(=O)O)c(O)cc2c1C(=O)c1c(O)cc(O)cc1C2=O
In words: enzyme kinetics of DnrF P217K. The format is biochemical, Streptomyces peucetius. The following applies: other: means ± SD, n = 3.

The next series relates to aloesone. Put plainly: Aloesin production from aloesone by GtCGT and variants in E. coli BL21(DE3), flask culture. The format is cell-based. On the procedure:
Also, in LC-MS/MS for aloesin analysis, MS (Agilent 6550 iFunnel Q-TOF LC/MS System) coupled with ultra HPLC (UHPLC; 1290 Infinity II LC System; Agilent) was used. Here, an Eclipse-plus C18 column was used, and 0.1% formic acid was used as buffer A, and acetonitrile to which 0.1% formic acid was added was used as buffer B.
Thereafter, in order to test the production of aloesin, the pCDF-GtCGT or pCDF-GtCGT^V93Q/Y193F plasmid was transformed into the BL21(DE3) strain containing pWAS-anti-pabA, pRSF-RpALS, and pBBR1-zwf plasmids, followed by flask culture.
Similarly to the test for increased production of aloesone, RpALS was additionally introduced to increase aloesin production. To this end, pCDF-RpALS-GtCGT^V93Q/Y193F was constructed instead of introducing pCDF-GtCGT^V93Q/Y193F. Specifically, RpALS was amplified from pCDF-RpALS using pCDFDuet F and pCDFDuet R primers, and inserted into the NcoI and BamHI sites of the pCA plasmid through Gibson assembly. Thereafter, four plasmids, namely pRSF-RpALS, pCDF-RpALS-GtCGT^V93Q/Y193F, pWAS-anti-pabA, and pBBR1-zwf, were transformed into E. coli BL21(DE3), which was named an ALS strain.
(§1) Mutagenesis for a specific sequence was performed in the same manner as in Example 2. Here, plasmids containing gene mutants were constructed using pCDF-RpALS-GtCGT^V93Q/Y193F as a template and using primer pairs shown in Table 11 below. The plasmids thus constructed were transformed into the BL21 (DE3) strain along with three plasmids, namely pWAS-anti-pabA, pRSF-RpALS, and pBBR1-zwf, followed by flask culture under the same conditions as in Example 3 using the strains thus constructed. The concentration of aloesin produced was measured in an MRM mode of the HPLC Triple Quadrupole Mass Spectrometer (LCMS-8050, Shimadzu) of the KAIST Biocore Center.
as §1, with “13” for “11”

As to `Cc1c(C(=O)O)c(O)cc2c1C(=O)c1c(O)cc(O)cc1C2=O` [FK, flavokermesic acid], the “KM value decreased compared to GtCGT” value in series [1] (decrease vs wild-type GtCGT) amounted to 19.5%. Further, the “Vmax value increased compared to GtCGT” value in series [1] (increase vs wild-type GtCGT) is recorded as 18.2%.

B1: Streptomyces peucetius DnrF (aklavinone 12-hydroxylase), wild type, SEQ ID NO: 2 (Streptomyces peucetius) (protein)
chain: MALTKPDVDVLVVGGGLGGLSTALFLARRGARVLLVERHASTSVLPKAAGQNPRTMELFRFGGVADEILATDDIRGAQGDFTIKVVERVGGRVLHSFAESFEELVGATEQCTPMPWALAPQDRVEPVLVAHAAKHGAEIRFATELTSFQAGDDGVTARLRDLGTGAESTVSARYLVAADGPRSAIRESLGITRHGHGTLAHFMGVIFEADLTAVVPPGSTGWYYLQHPDFTGTFGPTDRPNRHTFYVRYDPERGERPEDYTPQRCTELIRLAVDAPGLVPDILDIQAWDMAAYIADRWREGPVLLVGDAAKVTPPTGGMGGNTAIGDGFDVAWKLAAVLRGEAGERLLDSYGAERSLVSRLVVDESLAIYAQRMAPHLLGSVPEERGTAQVVLGFRYRSTAVAAEDDDPEPTEDPRRPSGRPGFRAPHVWIEQDGTRRSTVELFGDCWVLLAAPEGGAWGQAAARAAADLGVRLDVHLVGRDVAAPSGELTRTYGIGRAGASLVRPDGVVAWRTAVAPGAEAQDQLSTLLTRLLAR
notes: purification details not in the excerpts
By Km is commonly meant the substrate concentration at which the rate is half of its maximum. The Vmax is the rate approached at saturating substrate. In the case of B1, in “enzyme kinetics of DnrF”, the Km stood at 56.75 ± 4.68 µM, the Vmax is 0.99 µM/min and the Vmax/Km was determined as 0.0175 min⁻¹.

B2: Streptomyces peucetius DnrF (aklavinone 12-hydroxylase, SEQ ID NO: 2) variant P217K (Streptomyces peucetius; P217K) (protein)
chain: B1 chain with M1V, P217K
notes: as for B1
Regarding B2, in series [2], the Km stood at 43.31 ± 2.64 µM, the Vmax worked out at 1.01 µM/min and the Vmax/Km turned out to be 0.0234 min⁻¹.

B3: GtCGT V93Q/Y193F/P385A: GtCGT^V93Q/Y193F with additional P385A (Table 12 No. 15) (protein, listed as Gentiana triflora)
chain: T1 sequence (A0A0B6VIJ5 1-477 V93Q/Y193F) with P385A
In the series with aloesone (compared to conventional concentration of 0.3 μg/L (ALS strain with GtCGT^V93Q/Y193F)), B3 showed an aloesin production increase of at least 14.1 fold. Further, the aloesin production in the series on aloesone (variant on pCDF-RpALS-GtCGT plasmid (additional RpALS), with pWAS-anti-pabA, pRSF-RpALS, pBBR1-zwf) is 4.23 µg/L.
